One variant from IntAct's records for PubMed 19494828 can be followed below.

The labels stand for the following.
B1: Caspase-9 (Homo sapiens), P55211 (parent)
chain: MDEADRRLLRRCRLRLVEELQVDQLWDALLSRELFRPHMIEDIQRAGSGSRRDQARQLIIDLETRGSQALPLFISCLEDTGQDMLASFLRTNRQAAKLSKPTLENLTPVVLRPEIRKPEVLRPETPRPVDIGSGGFGDVGALESLRGNADLAYILSMEPCGHCLIINNVNFCRESGLRTRTGSNIDCEKLRRRFSSLHFMVEVKGDLTAKKMVLALLELAQQDHGALDCCVVVILSHGCQASHLQFPGAVYGTDGCPVSVEKIVNIFNGTSCPSLGGKPKLFFIQACGGEQKDHGFEVASTSPEDESPGSNPEPDATPFQEGLRTFDQLDAISSLPTPSDIFVSYSTFPGFVSWRDPKSGSWYVETLDDIFEQWAHSEDLQSLLLRVANAVSVKGIYKQMPGCFNFLRKKLFFKTS

In the experiment the parent is B1. The following applies: with apaf_human APAF1, O14727.
Sequence of apaf_human APAF1, O14727 (O14727 whole entry): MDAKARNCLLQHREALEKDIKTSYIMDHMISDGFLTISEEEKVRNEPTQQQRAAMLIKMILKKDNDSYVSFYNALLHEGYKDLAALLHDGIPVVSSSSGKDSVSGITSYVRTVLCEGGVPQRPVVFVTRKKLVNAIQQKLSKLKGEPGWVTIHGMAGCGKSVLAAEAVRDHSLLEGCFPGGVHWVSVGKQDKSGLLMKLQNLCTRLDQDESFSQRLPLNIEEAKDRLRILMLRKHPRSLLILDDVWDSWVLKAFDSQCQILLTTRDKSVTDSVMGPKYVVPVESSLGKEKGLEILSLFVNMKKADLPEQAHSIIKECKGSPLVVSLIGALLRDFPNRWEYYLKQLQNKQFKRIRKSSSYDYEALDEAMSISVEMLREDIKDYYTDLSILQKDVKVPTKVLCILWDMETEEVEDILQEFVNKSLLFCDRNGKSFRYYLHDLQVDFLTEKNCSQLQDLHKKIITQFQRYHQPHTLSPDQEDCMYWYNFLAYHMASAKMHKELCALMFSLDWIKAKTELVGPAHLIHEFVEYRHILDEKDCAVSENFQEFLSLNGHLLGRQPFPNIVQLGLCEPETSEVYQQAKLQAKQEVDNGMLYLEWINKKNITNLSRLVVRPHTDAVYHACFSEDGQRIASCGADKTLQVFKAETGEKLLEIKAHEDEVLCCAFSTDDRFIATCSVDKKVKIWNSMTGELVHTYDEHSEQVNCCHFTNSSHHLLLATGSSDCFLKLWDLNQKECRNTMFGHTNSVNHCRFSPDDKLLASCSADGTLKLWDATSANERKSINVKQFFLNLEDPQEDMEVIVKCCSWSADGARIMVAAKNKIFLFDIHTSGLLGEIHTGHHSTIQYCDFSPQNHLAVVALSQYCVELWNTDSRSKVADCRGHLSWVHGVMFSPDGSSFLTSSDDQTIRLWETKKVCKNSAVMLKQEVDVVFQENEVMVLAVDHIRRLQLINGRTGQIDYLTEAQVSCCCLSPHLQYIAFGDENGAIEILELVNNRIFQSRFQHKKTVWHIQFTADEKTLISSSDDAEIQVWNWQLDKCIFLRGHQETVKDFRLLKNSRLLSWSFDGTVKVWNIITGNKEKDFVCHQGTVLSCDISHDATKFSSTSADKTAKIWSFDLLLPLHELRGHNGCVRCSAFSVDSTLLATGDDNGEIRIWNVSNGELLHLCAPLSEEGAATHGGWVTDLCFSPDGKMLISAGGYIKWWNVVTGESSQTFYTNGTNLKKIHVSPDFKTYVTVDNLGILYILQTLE
As for R56A, the “effect of a mutation on the interaction” value is “disrupting interaction”.
